The source of these data is patent publication US20140087995A1 (published 2014).

Numbered stars: 1 amine (or outer) side, 2 acyl side, 3 side chain; on linkers, the order of the positions; unused ones are H or OH. Bridge positions count the residues as written; N and C are the ends. Side chains are listed from the residue outwards. Ends that are not written are not given here. * marks the point of attachment. C20 diacid = O=C(O)CCCCCCCCCCCCCCCCCCC(=O)*; γGlu = O=C(O)[C@H](CCC(=O)[*:2])N[*:1]; AEEA = NCCOCCOCC(=O)O

Sequences and labels used below:
B1: N^ε1-[2-[2-[2-[[(4S)-4-carboxy-4-(19-carboxynonadecanoylamino)butanoyl]amino]ethoxy]ethoxy]acetyl]-[Arg17,Pro21,Pro27,Pro31,His35]-h-amylin (peptide)
peptide: K([AEEA-γGlu-C20 diacid])CNTATCATQRLANFLRHSSPNFGAIPSSTPVGSHTY-NH2
modifications: disulfide 2-7; N-terminus assumed
SMILES: CC[C@H](C)[C@H](NC(=O)[C@H](C)NC(=O)CNC(=O)[C@H](Cc1ccccc1)NC(=O)[C@H](CC(N)=O)NC(=O)[C@@H]1CCCN1C(=O)[C@H](CO)NC(=O)[C@H](CO)NC(=O)[C@H](Cc1c[nH]cn1)NC(=O)[C@H](CCCNC(=N)N)NC(=O)[C@H](CC(C)C)NC(=O)[C@H](Cc1ccccc1)NC(=O)[C@H](CC(N)=O)NC(=O)[C@H](C)NC(=O)[C@H](CC(C)C)NC(=O)[C@H](CCCNC(=N)N)NC(=O)[C@H](CCC(N)=O)NC(=O)[C@@H](NC(=O)[C@H](C)NC(=O)[C@@H]1CSSC[C@H](NC(=O)[C@@H](N)CCCCNC(=O)COCCOCCNC(=O)CC[C@H](NC(=O)CCCCCCCCCCCCCCCCCCC(=O)O)C(=O)O)C(=O)N[C@@H](CC(N)=O)C(=O)N[C@@H]([C@@H](C)O)C(=O)N[C@@H](C)C(=O)N[C@@H]([C@@H](C)O)C(=O)N1)[C@@H](C)O)C(=O)N1CCC[C@H]1C(=O)N[C@@H](CO)C(=O)N[C@@H](CO)C(=O)N[C@H](C(=O)N1CCC[C@H]1C(=O)N[C@H](C(=O)NCC(=O)N[C@@H](CO)C(=O)N[C@@H](Cc1c[nH]cn1)C(=O)N[C@H](C(=O)N[C@@H](Cc1ccc(O)cc1)C(N)=O)[C@@H](C)O)C(C)C)[C@@H](C)O
notes: also called compound 57
B2: N^ε1-[2-[2-[2-[[(4S)-4-carboxy-4-(19-carboxynonadecanoylamino)butanoyl]amino]ethoxy]ethoxy]acetyl]-[Arg17,Pro21,Pro27,Pro34]-h-amylin (peptide)
peptide: K([AEEA-γGlu-C20 diacid])CNTATCATQRLANFLRHSSPNFGAIPSSTNVGPNTY-NH2
modifications: disulfide 2-7; N-terminus assumed
SMILES: CC[C@H](C)[C@H](NC(=O)[C@H](C)NC(=O)CNC(=O)[C@H](Cc1ccccc1)NC(=O)[C@H](CC(N)=O)NC(=O)[C@@H]1CCCN1C(=O)[C@H](CO)NC(=O)[C@H](CO)NC(=O)[C@H](Cc1c[nH]cn1)NC(=O)[C@H](CCCNC(=N)N)NC(=O)[C@H](CC(C)C)NC(=O)[C@H](Cc1ccccc1)NC(=O)[C@H](CC(N)=O)NC(=O)[C@H](C)NC(=O)[C@H](CC(C)C)NC(=O)[C@H](CCCNC(=N)N)NC(=O)[C@H](CCC(N)=O)NC(=O)[C@@H](NC(=O)[C@H](C)NC(=O)[C@@H]1CSSC[C@H](NC(=O)[C@@H](N)CCCCNC(=O)COCCOCCNC(=O)CC[C@H](NC(=O)CCCCCCCCCCCCCCCCCCC(=O)O)C(=O)O)C(=O)N[C@@H](CC(N)=O)C(=O)N[C@@H]([C@@H](C)O)C(=O)N[C@@H](C)C(=O)N[C@@H]([C@@H](C)O)C(=O)N1)[C@@H](C)O)C(=O)N1CCC[C@H]1C(=O)N[C@@H](CO)C(=O)N[C@@H](CO)C(=O)N[C@H](C(=O)N[C@@H](CC(N)=O)C(=O)N[C@H](C(=O)NCC(=O)N1CCC[C@H]1C(=O)N[C@@H](CC(N)=O)C(=O)N[C@H](C(=O)N[C@@H](Cc1ccc(O)cc1)C(N)=O)[C@@H](C)O)C(C)C)[C@@H](C)O
notes: also called compound 50
B3: N^ε1-[2-[2-[2-[[(4S)-4-carboxy-4-(19-carboxynonadecanoylamino)butanoyl]amino]ethoxy]ethoxy]acetyl]-[His14,Arg17,Pro21,Pro27,Arg34]-h-amylin (peptide)
peptide: K([AEEA-γGlu-C20 diacid])CNTATCATQRLAHFLRHSSPNFGAIPSSTNVGRNTY-NH2
modifications: disulfide 2-7; N-terminus assumed
SMILES: CC[C@H](C)[C@H](NC(=O)[C@H](C)NC(=O)CNC(=O)[C@H](Cc1ccccc1)NC(=O)[C@H](CC(N)=O)NC(=O)[C@@H]1CCCN1C(=O)[C@H](CO)NC(=O)[C@H](CO)NC(=O)[C@H](Cc1c[nH]cn1)NC(=O)[C@H](CCCNC(=N)N)NC(=O)[C@H](CC(C)C)NC(=O)[C@H](Cc1ccccc1)NC(=O)[C@H](Cc1c[nH]cn1)NC(=O)[C@H](C)NC(=O)[C@H](CC(C)C)NC(=O)[C@H](CCCNC(=N)N)NC(=O)[C@H](CCC(N)=O)NC(=O)[C@@H](NC(=O)[C@H](C)NC(=O)[C@@H]1CSSC[C@H](NC(=O)[C@@H](N)CCCCNC(=O)COCCOCCNC(=O)CC[C@H](NC(=O)CCCCCCCCCCCCCCCCCCC(=O)O)C(=O)O)C(=O)N[C@@H](CC(N)=O)C(=O)N[C@@H]([C@@H](C)O)C(=O)N[C@@H](C)C(=O)N[C@@H]([C@@H](C)O)C(=O)N1)[C@@H](C)O)C(=O)N1CCC[C@H]1C(=O)N[C@@H](CO)C(=O)N[C@@H](CO)C(=O)N[C@H](C(=O)N[C@@H](CC(N)=O)C(=O)N[C@H](C(=O)NCC(=O)N[C@@H](CCCNC(=N)N)C(=O)N[C@@H](CC(N)=O)C(=O)N[C@H](C(=O)N[C@@H](Cc1ccc(O)cc1)C(N)=O)[C@@H](C)O)C(C)C)[C@@H](C)O
notes: also called compound 84
B4: N^ε1-[2-[2-[2-[[(4S)-4-carboxy-4-(19-carboxynonadecanoylamino)butanoyl]amino]ethoxy]ethoxy]acetyl]-[Gly14,Arg17,Pro21,Pro27,Pro31]-h-amylin (peptide)
peptide: K([AEEA-γGlu-C20 diacid])CNTATCATQRLAGFLRHSSPNFGAIPSSTPVGSNTY-NH2
modifications: disulfide 2-7; N-terminus assumed
SMILES: CC[C@H](C)[C@H](NC(=O)[C@H](C)NC(=O)CNC(=O)[C@H](Cc1ccccc1)NC(=O)[C@H](CC(N)=O)NC(=O)[C@@H]1CCCN1C(=O)[C@H](CO)NC(=O)[C@H](CO)NC(=O)[C@H](Cc1c[nH]cn1)NC(=O)[C@H](CCCNC(=N)N)NC(=O)[C@H](CC(C)C)NC(=O)[C@H](Cc1ccccc1)NC(=O)CNC(=O)[C@H](C)NC(=O)[C@H](CC(C)C)NC(=O)[C@H](CCCNC(=N)N)NC(=O)[C@H](CCC(N)=O)NC(=O)[C@@H](NC(=O)[C@H](C)NC(=O)[C@@H]1CSSC[C@H](NC(=O)[C@@H](N)CCCCNC(=O)COCCOCCNC(=O)CC[C@H](NC(=O)CCCCCCCCCCCCCCCCCCC(=O)O)C(=O)O)C(=O)N[C@@H](CC(N)=O)C(=O)N[C@@H]([C@@H](C)O)C(=O)N[C@@H](C)C(=O)N[C@@H]([C@@H](C)O)C(=O)N1)[C@@H](C)O)C(=O)N1CCC[C@H]1C(=O)N[C@@H](CO)C(=O)N[C@@H](CO)C(=O)N[C@H](C(=O)N1CCC[C@H]1C(=O)N[C@H](C(=O)NCC(=O)N[C@@H](CO)C(=O)N[C@@H](CC(N)=O)C(=O)N[C@H](C(=O)N[C@@H](Cc1ccc(O)cc1)C(N)=O)[C@@H](C)O)C(C)C)[C@@H](C)O
notes: also called compound 71
B5: N^ε1-[2-[2-[2-[[(4S)-4-carboxy-4-(19-carboxynonadecanoylamino)butanoyl]amino]ethoxy]ethoxy]acetyl]-[Arg17,Pro21,Pro27,Pro34,His35]-h-amylin (peptide)
peptide: K([AEEA-γGlu-C20 diacid])CNTATCATQRLANFLRHSSPNFGAIPSSTNVGPHTY-NH2
modifications: disulfide 2-7; N-terminus assumed
SMILES: CC[C@H](C)[C@H](NC(=O)[C@H](C)NC(=O)CNC(=O)[C@H](Cc1ccccc1)NC(=O)[C@H](CC(N)=O)NC(=O)[C@@H]1CCCN1C(=O)[C@H](CO)NC(=O)[C@H](CO)NC(=O)[C@H](Cc1c[nH]cn1)NC(=O)[C@H](CCCNC(=N)N)NC(=O)[C@H](CC(C)C)NC(=O)[C@H](Cc1ccccc1)NC(=O)[C@H](CC(N)=O)NC(=O)[C@H](C)NC(=O)[C@H](CC(C)C)NC(=O)[C@H](CCCNC(=N)N)NC(=O)[C@H](CCC(N)=O)NC(=O)[C@@H](NC(=O)[C@H](C)NC(=O)[C@@H]1CSSC[C@H](NC(=O)[C@@H](N)CCCCNC(=O)COCCOCCNC(=O)CC[C@H](NC(=O)CCCCCCCCCCCCCCCCCCC(=O)O)C(=O)O)C(=O)N[C@@H](CC(N)=O)C(=O)N[C@@H]([C@@H](C)O)C(=O)N[C@@H](C)C(=O)N[C@@H]([C@@H](C)O)C(=O)N1)[C@@H](C)O)C(=O)N1CCC[C@H]1C(=O)N[C@@H](CO)C(=O)N[C@@H](CO)C(=O)N[C@H](C(=O)N[C@@H](CC(N)=O)C(=O)N[C@H](C(=O)NCC(=O)N1CCC[C@H]1C(=O)N[C@@H](Cc1c[nH]cn1)C(=O)N[C@H](C(=O)N[C@@H](Cc1ccc(O)cc1)C(N)=O)[C@@H](C)O)C(C)C)[C@@H](C)O
notes: also called compound 58
B6: N^ε1-[2-[2-[2-[[(4S)-4-carboxy-4-(19-carboxynonadecanoylamino)butanoyl]amino]ethoxy]ethoxy]acetyl]-[His14,Arg17,Pro21,Pro27,His34]-h-amylin (peptide)
peptide: K([AEEA-γGlu-C20 diacid])CNTATCATQRLAHFLRHSSPNFGAIPSSTNVGHNTY-NH2
modifications: disulfide 2-7; N-terminus assumed
SMILES: CC[C@H](C)[C@H](NC(=O)[C@H](C)NC(=O)CNC(=O)[C@H](Cc1ccccc1)NC(=O)[C@H](CC(N)=O)NC(=O)[C@@H]1CCCN1C(=O)[C@H](CO)NC(=O)[C@H](CO)NC(=O)[C@H](Cc1c[nH]cn1)NC(=O)[C@H](CCCNC(=N)N)NC(=O)[C@H](CC(C)C)NC(=O)[C@H](Cc1ccccc1)NC(=O)[C@H](Cc1c[nH]cn1)NC(=O)[C@H](C)NC(=O)[C@H](CC(C)C)NC(=O)[C@H](CCCNC(=N)N)NC(=O)[C@H](CCC(N)=O)NC(=O)[C@@H](NC(=O)[C@H](C)NC(=O)[C@@H]1CSSC[C@H](NC(=O)[C@@H](N)CCCCNC(=O)COCCOCCNC(=O)CC[C@H](NC(=O)CCCCCCCCCCCCCCCCCCC(=O)O)C(=O)O)C(=O)N[C@@H](CC(N)=O)C(=O)N[C@@H]([C@@H](C)O)C(=O)N[C@@H](C)C(=O)N[C@@H]([C@@H](C)O)C(=O)N1)[C@@H](C)O)C(=O)N1CCC[C@H]1C(=O)N[C@@H](CO)C(=O)N[C@@H](CO)C(=O)N[C@H](C(=O)N[C@@H](CC(N)=O)C(=O)N[C@H](C(=O)NCC(=O)N[C@@H](Cc1c[nH]cn1)C(=O)N[C@@H](CC(N)=O)C(=O)N[C@H](C(=O)N[C@@H](Cc1ccc(O)cc1)C(N)=O)[C@@H](C)O)C(C)C)[C@@H](C)O
notes: also called compound 80

One experiment has as its target T1, human calcitonin receptor (human, UniProt P30988 25-474).
T1 construct: whole, on cells; Assayed as cell membranes of BHK tk'ts 13 cells stably transfected with the human calcitonin receptor (Assay VII); also called hCTR; hCT
T1 sequence (looked up): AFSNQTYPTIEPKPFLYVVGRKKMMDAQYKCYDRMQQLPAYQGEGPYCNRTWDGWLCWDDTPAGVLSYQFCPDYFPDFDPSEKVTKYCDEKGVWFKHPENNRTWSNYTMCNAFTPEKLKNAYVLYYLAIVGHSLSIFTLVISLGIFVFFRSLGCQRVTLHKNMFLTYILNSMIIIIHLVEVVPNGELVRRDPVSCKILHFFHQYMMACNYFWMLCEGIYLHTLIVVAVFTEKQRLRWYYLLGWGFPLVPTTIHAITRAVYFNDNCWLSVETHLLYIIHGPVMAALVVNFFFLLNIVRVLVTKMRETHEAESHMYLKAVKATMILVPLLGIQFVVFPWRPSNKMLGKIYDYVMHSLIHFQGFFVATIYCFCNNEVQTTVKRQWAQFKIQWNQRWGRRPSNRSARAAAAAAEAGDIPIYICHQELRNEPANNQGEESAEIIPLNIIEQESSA
As to the kind of experiment: IC50 at hCTR divided by IC50 at hAmylin-R (SPA competition assays V and VII). In outline:
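Membranes (35 ng/μL final) + SPA beads, 50 mM Hepes pH 7.4 buffer with 1 mM CaCl2, 5 mM MgCl₂, 0.1% OA, 0.02% Tween20; 120 min, 25° C, shaking; centrifuged, counted; IC₅₀ by one-site binding competition.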
B1: the “Ratio hCT/hAmylin binding” value worked out at 133.

For B2, the “Ratio hCT/hAmylin binding” value was 36.

Take B3: the “Ratio hCT/hAmylin binding” value worked out at 120.

With B4, the “Ratio hCT/hAmylin binding” value was 32.

In the case of B5, the “Ratio hCT/hAmylin binding” value is 109.

On to B6, for which the “Ratio hCT/hAmylin binding” value came to 68.1.

A further experiment has as its target T1, human calcitonin receptor. As to the kind of experiment: SPA competition vs 125I-calcitonin, membranes of BHK cells with human calcitonin receptor (Assay VII). The procedure, abridged: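 BHK hCTR membranes 35 ng/μL + SPA beads 0.05 mg/well; buffer 50 mM Hepes pH 7.4, 1 mM CaCl2, 5 mM MgCl₂, 0.1% OA, 0.02% Tween20. 120 min, 25° C., shaking. Scintillation count; IC50 by one-site binding competition.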
B1: the IC50 is 15.3 nM.

Consider B2, for which the IC50 was found to be 1.38 nM.

For the molecule B3, the 50% inhibitory concentration (IC50) is 88.9 nM.

With B4, the concentration for half-maximal inhibition (IC50) was determined as 1.53 nM.

Take B5: the IC50 came out at 9.63 nM.

As for B6, the IC50 came out at 19.8 nM.

Usually IC50 stands for the midpoint of a concentration-inhibition curve.
